In article PMC3874162 (Nucleic Acids Research, 2013) one finds Kd data, which are given here for one molecule.

Test in all cases: EMSA
For orientation: A gel shift assay detects complexes by their altered migration in electrophoresis.

In one data set the target is T1, Cdc13-DBD (Saccharomyces cerevisiae, UniProt P32797 497-694).
T1 sequence: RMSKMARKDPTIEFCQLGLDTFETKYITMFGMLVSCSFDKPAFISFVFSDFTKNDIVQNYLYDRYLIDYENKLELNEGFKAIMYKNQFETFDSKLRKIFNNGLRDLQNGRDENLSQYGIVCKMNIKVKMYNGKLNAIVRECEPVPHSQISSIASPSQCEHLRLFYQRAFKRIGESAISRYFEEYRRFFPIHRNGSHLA

The target of a further data set is T2, Cdc13-Y561A (Saccharomyces cerevisiae, UniProt P32797 1-924, Y561A).
T2 sequence: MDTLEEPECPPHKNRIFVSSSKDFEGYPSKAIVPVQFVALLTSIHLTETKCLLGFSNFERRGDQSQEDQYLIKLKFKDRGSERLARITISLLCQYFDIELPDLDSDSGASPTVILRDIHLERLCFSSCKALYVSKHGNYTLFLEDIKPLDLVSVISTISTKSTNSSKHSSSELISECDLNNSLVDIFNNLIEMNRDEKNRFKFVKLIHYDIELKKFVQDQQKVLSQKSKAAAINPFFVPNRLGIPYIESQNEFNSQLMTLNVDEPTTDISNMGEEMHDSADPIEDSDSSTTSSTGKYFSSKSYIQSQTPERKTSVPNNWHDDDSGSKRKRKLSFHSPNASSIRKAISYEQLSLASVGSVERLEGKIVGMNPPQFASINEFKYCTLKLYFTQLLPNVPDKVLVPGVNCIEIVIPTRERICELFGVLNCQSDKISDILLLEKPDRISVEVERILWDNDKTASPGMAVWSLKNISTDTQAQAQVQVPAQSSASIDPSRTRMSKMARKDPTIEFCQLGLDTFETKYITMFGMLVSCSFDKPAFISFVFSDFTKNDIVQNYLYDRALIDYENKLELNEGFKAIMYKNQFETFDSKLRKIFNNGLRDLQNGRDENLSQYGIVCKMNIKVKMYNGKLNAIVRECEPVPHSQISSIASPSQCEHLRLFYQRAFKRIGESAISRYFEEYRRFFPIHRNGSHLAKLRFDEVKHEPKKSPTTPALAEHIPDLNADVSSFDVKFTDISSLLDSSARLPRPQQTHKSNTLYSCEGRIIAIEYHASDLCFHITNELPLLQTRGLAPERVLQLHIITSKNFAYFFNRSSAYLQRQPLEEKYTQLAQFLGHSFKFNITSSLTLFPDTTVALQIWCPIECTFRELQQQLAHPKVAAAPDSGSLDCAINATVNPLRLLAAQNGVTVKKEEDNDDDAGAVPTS

The target of a further data set is T3, Cdc13-K622A (Saccharomyces cerevisiae, UniProt P32797 1-924, K622A).
T3 sequence: T2 sequence with A561Y, K622A

Residue numbers refer to the chain shown, from its start.

For orientation: Kd means the free concentration of one partner at which half of the binding sites on the other are occupied at equilibrium, for simple one-to-one binding. A low value points to a tighter complex. Turning to GTGTGGGTGTG (ssDNA) [Tel11], the results for the Kd with Cdc13-DBD, with Cdc13-Y561A and in the data set with Cdc13-K622A were 0.0034 ± 0.0005 nM, 0.017 ± 0.001 nM and 0.05 ± 0.003 nM, respectively.
